Data from paper PMC11931385, “Structural and functional analysis of cancer-associated missense variants in the retinoblastoma protein pocket domain” (The Journal of Biological Chemistry, 2025).
Residue numbers refer to the chain shown, from its start. Names may count otherwise. No end group written: not given here. TMR = tetramethyl rhodamine dye

B1: TMR-E2F1^TD, peptide of the E2F1 transactivation domain (peptide)
peptide: {TMR}-GEGIRDLFDCDFGDLTPLD
notes: also called E2F^TD; source: synthetic peptide, bought: GenScript
B2: TMR-E7^LxCxE, LxCxE peptide of the E7 oncoprotein from HPV (peptide)
peptide: DLYCYEQLN
modifications: also: TMR label, position not given here
notes: source: synthetic peptide, bought: GenScript

How the values were obtained:
Assay in all cases: fluorescence polarisation; 25 °C; unlabeled Rb^P titrated against 1.5 nM TMR-E2F1^TD or 7.5 nM TMR-E7^LxCxE; 25 mM Tris pH 8.0, 200 mM NaCl, 1 mM DTT, 0.1% Tween-20; 2 min incubation; quadratic fit; apparent Kd for the variants, Kd for WT
Conditions in all cases: both partners purified
[1] = target: T1, Rb^P S612P (human, UniProt P06400 380-788, S612P)
T1 construct: also called variant 39
T1 sequence (looked up): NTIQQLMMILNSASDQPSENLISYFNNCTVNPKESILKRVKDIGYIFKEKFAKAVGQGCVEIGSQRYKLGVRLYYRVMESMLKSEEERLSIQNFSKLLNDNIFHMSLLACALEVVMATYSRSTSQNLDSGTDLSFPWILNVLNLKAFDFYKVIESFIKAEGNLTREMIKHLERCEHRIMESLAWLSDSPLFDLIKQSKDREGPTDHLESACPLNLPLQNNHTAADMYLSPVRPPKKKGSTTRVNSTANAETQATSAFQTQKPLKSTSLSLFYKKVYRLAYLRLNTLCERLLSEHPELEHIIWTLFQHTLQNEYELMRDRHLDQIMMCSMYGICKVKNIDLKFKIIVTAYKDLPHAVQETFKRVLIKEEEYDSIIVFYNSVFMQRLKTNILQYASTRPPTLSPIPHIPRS

[2] = target: T2, Rb^P S648T (human, UniProt P06400 380-788, S648T)
T2 construct: also called variant 46
T2 sequence (looked up): T1 sequence (looked up) with P233S, S269T

[3] = target: T3, Rb^P E554K (human, UniProt P06400 380-788, E554K)
T3 construct: also called variant 28
T3 sequence (looked up): T1 sequence (looked up) with E175K, P233S

[4] = target: T4, Rb^P K462T (human, UniProt P06400 380-788, K462T)
T4 construct: also called variant 9
T4 sequence (looked up): T1 sequence (looked up) with K83T, P233S

[5] = target: T5, Rb^P T638S (human, UniProt P06400 380-788, T638S)
T5 construct: also called variant 45
T5 sequence (looked up): T1 sequence (looked up) with P233S, T259S

Row | Binder | Kd [1] [nM] | Kd [2] [nM] | Kd [3] [nM] | Kd [4] [nM] | Kd [5] [nM]
1 | B1 | 32 | 33 | 1170 | 30 | 14
2 | B2 | 7 | 6 | 12 | 8 | 7
